# Experimental data as given in publication PMC7160132.
# Test system: XPO5-His6 (Exportin-5) (Homo sapiens)
# Experiment: EMSA
# Details: no RanGTP, 20 mM HEPES pH 7.3, 150 mM K acetate, 2 mM Mg acetate, 0.05% NP-40, 7 mM 2-mercaptoethanol, 1.5 ug/mL poly dIdC, 0.2% BSA, 25 C 45 min, then 0.3 ug heparin …
substance,measurement,setting,value
pri-mir-15b,Kd,single shifted complex,0.00957 µM
pri-mir-19a,Kd,two complexes with increasing XPO5,0.0146 µM
vtRNA1-1,Kd,"1 nM RNA, super-shift at high XPO5",0.0363 µM
